Values belong to the binder of their own block, whether it stands above or below them. No end group written: not given here. Me3 = trimethyl; Me2 = dimethyl
How the values were obtained:
[1] = biological target: T1, Avitag-PHD1 (human, UniProt P41229-1 318-378, not fully specified; biotin on the Avitag (BirA co-expression)); assay: BLI; dissociation kobs2 (two phase)
T1 chain: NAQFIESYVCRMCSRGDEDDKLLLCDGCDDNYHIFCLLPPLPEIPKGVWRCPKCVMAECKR

[2] = biological target: T1, Avitag-PHD1; assay: BLI; dissociation kobs1 (two phase)
[3] = biological target: T2, unmodified 147 bp mononucleosome (human, UniProt P68431 1-136); assay: apparent, EMSA, lower limit
[4] = biological target: T3, unmodified 187 bp mononucleosome (human, UniProt P68431 1-136); assay: apparent, EMSA
[5] = biological target: T4, PHD1 (KDM5C residues 318–378) (human, UniProt P41229-1 318-378); assay: NMR; from I361
T4 chain: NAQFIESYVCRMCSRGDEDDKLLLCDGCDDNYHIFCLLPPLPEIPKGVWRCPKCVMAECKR

[6] = biological target: T3, unmodified 187 bp mononucleosome; assay: apparent, EMSA, lower limit
[7] = biological target: T2, unmodified 147 bp mononucleosome; assay: apparent Kd, EMSA, lower limit
[8] = biological target: T2, unmodified 147 bp mononucleosome; assay: apparent Kd, EMSA, lower limit; remark: listed apart in the source
[9] = biological target: T4, PHD1 (KDM5C residues 318–378); assay: NMR; from D343
[10] = biological target: T5, PHD1 D343A mutant (human, UniProt P41229-1 318-378, D343A); assay: NMR; lower limit, from I361
T5 sequence: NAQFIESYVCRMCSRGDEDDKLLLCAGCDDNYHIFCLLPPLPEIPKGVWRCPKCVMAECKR

[11] = biological target: T4, PHD1 (KDM5C residues 318–378); assay: NMR; lower limit, from I361
[12] = biological target: T2, unmodified 147 bp mononucleosome; assay: apparent, EMSA

koff [1]: 0.04 s⁻¹
koff [2]: 2.2 s⁻¹
B1: KDM5C (295–314) peptide (peptide)
peptide: Ac-KEELSHSPEPCTKMTMRLRR-NH2

Kd [3]: > 15.1 µM
Kd [4]: 6.3 µM
B2: KDM5C^1–839 K101A/R107A (domain or fragment)
chain: MEPGSDDFLPPPECPVFEPSWAEFRDPLGYIAKIRPIAEKSGICKIRPPADWQPPFAVEVDNFRFTPRIQRLNELEAQTRVKLNYLDQIAKFWEIQGSSLAIPNVEARILDLYSLSKIVVEEGGYEAICKDRRWARVAQRLNYPPGKNIGSLLRSHYERIVYPYEMYQSGANLVQCNTRPFDNEEKDKEYKPHSIPLRQSVQPSKFNSYGRRAKRLQPDPEPTEEDIEKNPELKKLQIYGAGPKMMGLGLMAKDKTLRKKDKEGPECPPTVVVKEELGGDVKVESTSPKTFLESKEELSHSPEPCTKMTMRLRRNHSNAQFIESYVCRMCSRGDEDDKLLLCDGCDDNYHIFCLLPPLPEIPKGVWRCPKCVMAECKRPPEAFGFEQATREYTLQSFGEMADSFKADYFNMPVHMVPTELVEKEFWRLVNSIEEDVTVEYGADIHSKEFGSGFPVSDSKRHLTPEEEEYATSGWNLNVMPVLEQSVLCHINADISGMKVPWLYVGMVFSAFCWHIEDHWSYSINYLHWGEPKTWYGVPSLAAEHLEEVMKKLTPELFDSQPDLLHQLVTLMNPNTLMSHGVPVVRTNQCAGEFVITFPRAYHSGFNQGYNFAEAVNFCTADWLPAGRQCIEHYRRLRRYCVFSHEELICKMAACPEKLDLNLAAAVHKEMFIMVQEERRLRKALLEKGITEAEREAFELLPDDERQCIKCKTTCFLSALACYDCPDGLVCLSHINDLCKCSSSRQYLRYRYTLDELPAMLHKLKVRAESFDTWANKVRVALEVEDGRKRSLEELRALESEARERRFPNSELLQQLKNCLSEAEACVSRALGLVSGQEAG

Kd [4]: 4.3 µM
B3: KDM5C^1–839 (domain or fragment)
chain: MEPGSDDFLPPPECPVFEPSWAEFRDPLGYIAKIRPIAEKSGICKIRPPADWQPPFAVEVDNFRFTPRIQRLNELEAQTRVKLNYLDQIAKFWEIQGSSLKIPNVERRILDLYSLSKIVVEEGGYEAICKDRRWARVAQRLNYPPGKNIGSLLRSHYERIVYPYEMYQSGANLVQCNTRPFDNEEKDKEYKPHSIPLRQSVQPSKFNSYGRRAKRLQPDPEPTEEDIEKNPELKKLQIYGAGPKMMGLGLMAKDKTLRKKDKEGPECPPTVVVKEELGGDVKVESTSPKTFLESKEELSHSPEPCTKMTMRLRRNHSNAQFIESYVCRMCSRGDEDDKLLLCDGCDDNYHIFCLLPPLPEIPKGVWRCPKCVMAECKRPPEAFGFEQATREYTLQSFGEMADSFKADYFNMPVHMVPTELVEKEFWRLVNSIEEDVTVEYGADIHSKEFGSGFPVSDSKRHLTPEEEEYATSGWNLNVMPVLEQSVLCHINADISGMKVPWLYVGMVFSAFCWHIEDHWSYSINYLHWGEPKTWYGVPSLAAEHLEEVMKKLTPELFDSQPDLLHQLVTLMNPNTLMSHGVPVVRTNQCAGEFVITFPRAYHSGFNQGYNFAEAVNFCTADWLPAGRQCIEHYRRLRRYCVFSHEELICKMAACPEKLDLNLAAAVHKEMFIMVQEERRLRKALLEKGITEAEREAFELLPDDERQCIKCKTTCFLSALACYDCPDGLVCLSHINDLCKCSSSRQYLRYRYTLDELPAMLHKLKVRAESFDTWANKVRVALEVEDGRKRSLEELRALESEARERRFPNSELLQQLKNCLSEAEACVSRALGLVSGQEAG

Kd [3]: > 35 µM
Kd [6]: > 42 µM
Kd [7]: > 35 µM
B5: KDM5C^(1–839 ΔAP) (domain or fragment)
chain: MEPGSDDFLPPPECPVFEPSWAEFRDPLGYIAKIRPIAEKSGICKIRPPADWQPPFAVEVDNFRFTPRIQRLNELEAQTRVKGGGGPPEAFGFEQATREYTLQSFGEMADSFKADYFNMPVHMVPTELVEKEFWRLVNSIEEDVTVEYGADIHSKEFGSGFPVSDSKRHLTPEEEEYATSGWNLNVMPVLEQSVLCHINADISGMKVPWLYVGMVFSAFCWHIEDHWSYSINYLHWGEPKTWYGVPSLAAEHLEEVMKKLTPELFDSQPDLLHQLVTLMNPNTLMSHGVPVVRTNQCAGEFVITFPRAYHSGFNQGYNFAEAVNFCTADWLPAGRQCIEHYRRLRRYCVFSHEELICKMAACPEKLDLNLAAAVHKEMFIMVQEERRLRKALLEKGITEAEREAFELLPDDERQCIKCKTTCFLSALACYDCPDGLVCLSHINDLCKCSSSRQYLRYRYTLDELPAMLHKLKVRAESFDTWANKVRVALEVEDGRKRSLEELRALESEARERRFPNSELLQQLKNCLSEAEACVSRALGLVSGQEAG

Second part, the binder before the results:

B4: H3K4me1 (1–18) peptide (peptide)
peptide: ARTK(Me)QTARKSTGGKAPRK
Kd [5]: 313 µM

B6: KDM5C1-839 ΔAP A388P (protein)
chain: MEPGSDDFLPPPECPVFEPSWAEFRDPLGYIAKIRPIAEKSGICKIRPPADWQPPFAVEVDNFRFTPRIQRLNELEAQTRVKGGGGPPEAFGFEQPTREYTLQSFGEMADSFKADYFNMPVHMVPTELVEKEFWRLVNSIEEDVTVEYGADIHSKEFGSGFPVSDSKRHLTPEEEEYATSGWNLNVMPVLEQSVLCHINADISGMKVPWLYVGMVFSAFCWHIEDHWSYSINYLHWGEPKTWYGVPSLAAEHLEEVMKKLTPELFDSQPDLLHQLVTLMNPNTLMSHGVPVVRTNQCAGEFVITFPRAYHSGFNQGYNFAEAVNFCTADWLPAGRQCIEHYRRLRRYCVFSHEELICKMAACPEKLDLNLAAAVHKEMFIMVQEERRLRKALLEKGITEAEREAFELLPDDERQCIKCKTTCFLSALACYDCPDGLVCLSHINDLCKCSSSRQYLRYRYTLDELPAMLHKLKVRAESFDTWANKVRVALEVEDGRKRSLEELRALESEARERRFPNSELLQQLKNCLSEAEACVSRALGLVSGQEAG
Kd [8]: > 45 µM

B7: KDM5C (199–218) peptide (peptide)
peptide: Ac-QSVQPSKFNSYGRRAKRLQP-NH2
koff [1]: 0.02 s⁻¹
koff [2]: 1.45 s⁻¹
Kd [9]: 440 µM

B8: H3 (1–18) tail peptide (peptide)
peptide: ARTKQTARKSTGGKAPRK
Kd [10]: > 1450 µM
Kd [9]: 140 µM

B9: H3K4me3 (1–18) peptide (peptide)
peptide: ARTK(Me3)QTARKSTGGKAPRK
Kd [11]: > 1500 µM

B10: H3K4me2 (1–18) peptide (peptide)
peptide: ARTK(Me2)QTARKSTGGKAPRK
Kd [11]: > 900 µM

B11: ARID (KDM5C residues 73–188) (domain or fragment)
chain: NELEAQTRVKLNYLDQIAKFWEIQGSSLKIPNVERRILDLYSLSKIVVEEGGYEAICKDRRWARVAQRLNYPPGKNIGSLLRSHYERIVYPYEMYQSGANLVQCNTRPFDNEEKDK
Kd [12]: 31 µM
Kd [4]: 22 µM

From publication PMC10247153 (2022)
